# Reference: patent US20040235717
# Columns and labels:
# [1] = biological target: mtAR S210A (UniProt P10275)
# [2] = biological target: mtAR S790A (UniProt P10275)
# Chain of mtAR S790A (P10275 whole entry, looked up, stated change not applied): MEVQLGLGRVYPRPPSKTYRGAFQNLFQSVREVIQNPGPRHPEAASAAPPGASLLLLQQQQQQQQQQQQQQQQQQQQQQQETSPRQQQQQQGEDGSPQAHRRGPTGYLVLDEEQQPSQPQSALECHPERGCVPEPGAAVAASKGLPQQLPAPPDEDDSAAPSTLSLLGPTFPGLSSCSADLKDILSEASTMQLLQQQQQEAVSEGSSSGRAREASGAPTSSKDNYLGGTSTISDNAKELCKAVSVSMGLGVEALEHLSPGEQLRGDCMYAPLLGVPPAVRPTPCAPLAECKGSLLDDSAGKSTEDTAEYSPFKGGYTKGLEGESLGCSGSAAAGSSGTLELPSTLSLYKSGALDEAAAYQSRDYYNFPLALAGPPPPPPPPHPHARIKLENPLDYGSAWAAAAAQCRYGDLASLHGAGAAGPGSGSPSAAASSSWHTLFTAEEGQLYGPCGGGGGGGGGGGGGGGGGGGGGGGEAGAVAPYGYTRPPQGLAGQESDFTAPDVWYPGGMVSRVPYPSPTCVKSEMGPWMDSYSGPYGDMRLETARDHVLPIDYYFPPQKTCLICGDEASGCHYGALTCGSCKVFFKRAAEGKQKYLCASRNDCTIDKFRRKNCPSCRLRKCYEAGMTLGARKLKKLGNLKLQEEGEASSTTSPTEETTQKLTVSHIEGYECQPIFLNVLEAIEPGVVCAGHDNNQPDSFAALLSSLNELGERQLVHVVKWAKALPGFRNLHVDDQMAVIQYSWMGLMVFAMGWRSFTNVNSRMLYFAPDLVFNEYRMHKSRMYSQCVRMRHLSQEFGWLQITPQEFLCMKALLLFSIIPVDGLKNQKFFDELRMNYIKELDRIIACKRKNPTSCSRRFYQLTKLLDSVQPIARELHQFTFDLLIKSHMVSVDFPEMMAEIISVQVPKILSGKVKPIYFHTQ
# Chain of mtAR S210A (P10275 whole entry, looked up, stated change not applied): as above
substance,measurement,setting,value
"Akt/PKB (endogenous, LNCaP cells)",in vitro phosphorylation of immunoprecipitated AR by Akt,[1],"the degree of Akt phosphorylation of mtARS210A and mtARS790A, as compared to wtAR, was reduced significantly"
same,in vitro phosphorylation of immunoprecipitated AR by Akt/PKB,[1],"the degree of phosphorylation of ARS210A and ARS790A by Akt/PKB, as compared to wtAR, was reduced significantly"
same,in vitro phosphorylation of immunoprecipitated AR by Akt,[2],"the degree of Akt phosphorylation of mtARS210A and mtARS790A, as compared to wtAR, was reduced significantly"
same,in vitro phosphorylation of immunoprecipitated AR by Akt/PKB,[2],"the degree of phosphorylation of ARS210A and ARS790A by Akt/PKB, as compared to wtAR, was reduced significantly"
